# Source: publication doi:10.1101/2021.05.18.444627 (bioRxiv, 2021)
# Target: T1, UL34^(174-194) peptide, unlabelled (HSV-1, UniProt P10218 174-194, N-terminal acetyl; C-terminal amide)
# T1 peptide: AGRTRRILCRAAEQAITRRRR
# Experiment: cross-linking
binder,measurement,value
Ac-RRSRSSAAGGTLGVVRRASRK-NH2 [UL31^(22-42) peptide (middle of the UL31 MPR)],binding result,binds
Ac-RKSLPPHARK-NH2 [UL31^(41-50) peptide (UL31 mini-MPR)],binding result,binds
